The chains are these.
B1: mRNA-splicing (parent)
chain: AGUUGCUGCUGGGAGCUCCAGCACAGUGAAAUGGACAGAAGGGCAGAGCAA

The series covers variants of B1. As to the kind of experiment: exon inclusion enrichment index; higher = more inclusion; WT1 exon 5 minigene, HEK293.
On to G28A A29G, for which the “exon inclusion enrichment index” value is 0.0365.

As for G5A C6U U7A G8U C9A G11A, the “exon inclusion enrichment index” value came to 0.00945.

Take G5A C6U U7A G8U C9A U10A: the “exon inclusion enrichment index” value was found to be 0.0162.

As to G5C C6A U7C G8A U10A C44G A45U, the “exon inclusion enrichment index” value came out at 0.109.

For the variant U3G U4A G5A C6U U7A G8U C9A, the “exon inclusion enrichment index” value worked out at 0.0777.

With C6A U7G, the “exon inclusion enrichment index” value stood at 0.00565.

Regarding G5A C6U U7A G8U C9A G41C G42A, the “exon inclusion enrichment index” value worked out at 0.139.

Consider G5C C6A U7C G8A U10A A29U A30U, for which the “exon inclusion enrichment index” value is 0.0185.

For the variant C6A U7A C9A U10A A25G G26C, the “exon inclusion enrichment index” value came out at 2.3.

G5A C6G U7G U10A: the “exon inclusion enrichment index” value stood at 0.00101.

As to G2A G5C C6U G8C C9U U10C, the “exon inclusion enrichment index” value worked out at 2.9.

Take C16G U17G: the “exon inclusion enrichment index” value stood at 0.0697.

Regarding G5C C6G U7C U10C G41U G42C, the “exon inclusion enrichment index” value is 3.95.

As for G5A C6G U7G C9A A37U G38U, the “exon inclusion enrichment index” value stood at 0.00105.

With C6A U7A C9A U10A G34U A35G, the “exon inclusion enrichment index” value was found to be 0.134.

As to U3G U4G C6A U7C C9A U10C, the “exon inclusion enrichment index” value is 1.23.

Consider G5A C6G U7G C9A G41A G42U, for which the “exon inclusion enrichment index” value is 0.00291.

Regarding U4A G5U C6U U7A G8U C9A, the “exon inclusion enrichment index” value is 0.0503.

As to G5U G8U C9U U27A G28U, the “exon inclusion enrichment index” value came out at 0.0328.

For G2U U3G G5C C6U G8C C9U U10C, the “exon inclusion enrichment index” value worked out at 3.99.

Regarding G5A U7C G8A U10C C16U, the “exon inclusion enrichment index” value stood at 2.53.

Regarding G5C C6A U7C G8A U10A A14G, the “exon inclusion enrichment index” value was found to be 0.0477.

Take C6A U7C C9A U10C A47U G48A: the “exon inclusion enrichment index” value was 2.69.

With C6A U7C C9A U10C G26A, the “exon inclusion enrichment index” value worked out at 3.92.

On to G5A U7C G8A U10C A39C A40G, for which the “exon inclusion enrichment index” value was 2.18.

In the case of G5C C6A U7C G8A U10A A47G, the “exon inclusion enrichment index” value was found to be 0.0221.

Regarding U4C C6A U7A C9A U10A, the “exon inclusion enrichment index” value amounted to 1.51.

With C6A U7C C9A U10C G41A G42U, the “exon inclusion enrichment index” value came out at 2.71.

As to U32A G33A, the “exon inclusion enrichment index” value came out at 0.0558.

Regarding G5C C6G U7C U10C C44A A45U, the “exon inclusion enrichment index” value worked out at 5.86.

Take G5A C6G U7G C9A C44G: the “exon inclusion enrichment index” value is 0.00206.

Take G5C C6G U7C U10C G15U C16U: the “exon inclusion enrichment index” value came out at 3.3.

In the case of G5A C6U U7C G8A C9A, the “exon inclusion enrichment index” value turned out to be 0.442.

In the case of G5A C6G U7G C9A G43A C44A, the “exon inclusion enrichment index” value worked out at 0.0069.

As to U3C G5A C6G U7G C9A, the “exon inclusion enrichment index” value came to 0.00112.

Consider G5A C6G U7G G8A U10C, for which the “exon inclusion enrichment index” value stood at 0.159.

For G2A U3G G5U G8U C9U, the “exon inclusion enrichment index” value is 0.0993.

Regarding G5A C6G U7G C9A G15C C16G, the “exon inclusion enrichment index” value is 0.004.

On to G5A C6G U7G C9A C18G C19G, for which the “exon inclusion enrichment index” value is 0.0012.

For the variant C6A U7A C9A U10A G15U C16G, the “exon inclusion enrichment index” value was 0.298.

As for G5A C6U U7A G8U C9A U17C, the “exon inclusion enrichment index” value turned out to be 0.0376.

In the case of G5A C6U U7A G8C C9G, the “exon inclusion enrichment index” value was 0.736.

Take G5C C6A U7C G8A U10A U17C: the “exon inclusion enrichment index” value is 0.0444.

Regarding G5C C6U G8C C9U U10C A39G A40G, the “exon inclusion enrichment index” value is 0.186.

As for C6A U7A C9A U10A C19A A20C, the “exon inclusion enrichment index” value amounted to 0.41.

With G5U G8U C9U U17A C18U, the “exon inclusion enrichment index” value worked out at 0.0627.

For G5A G8U U10C, the “exon inclusion enrichment index” value stood at 1.78.

As for G5U G8U C9U U32C, the “exon inclusion enrichment index” value turned out to be 0.344.

As to G5U G8U C9U U32G, the “exon inclusion enrichment index” value was 0.00207.

With G5C C6A U7C G8A U10A C18U C19U, the “exon inclusion enrichment index” value amounted to 0.00236.

Consider G5A C6G U7G C9A A25U G26A, for which the “exon inclusion enrichment index” value amounted to 0.00161.

Consider G5C C6G U7C U10C A39U A40C, for which the “exon inclusion enrichment index” value was 3.55.

As to G5A U7C G8A U10C G21A C22G, the “exon inclusion enrichment index” value worked out at 2.31.

C6A U7A U10G: the “exon inclusion enrichment index” value turned out to be 0.84.

For the variant G5U G8U C9U C16U U17A, the “exon inclusion enrichment index” value was 0.0519.

For G5A C6U U7A G8U C9A C19G, the “exon inclusion enrichment index” value was found to be 0.0674.

For G5C C6A U7C G8A U10A A30C A31U, the “exon inclusion enrichment index” value was 0.168.

For G5C C6A U7C G8A U10A A20C G21C, the “exon inclusion enrichment index” value was 0.00894.

For the variant G5A C6G U7G C9A A39C A40C, the “exon inclusion enrichment index” value was 0.0091.

As for A45U, the “exon inclusion enrichment index” value worked out at 0.318.

For the variant G5C U7C C9A U10C, the “exon inclusion enrichment index” value was 0.262.

For G5C C6U G8C C9U U10C C19G A20U, the “exon inclusion enrichment index” value turned out to be 1.72.

Turning to G5U G8U C9U G13A A14U, the “exon inclusion enrichment index” value is 0.349.

As to G5A C6G C9A, the “exon inclusion enrichment index” value worked out at 0.036.

Take G5C C6A U7C G8A U10A G13U A14C: the “exon inclusion enrichment index” value was 0.0603.

G5A C6U U7A G8U C9A A14C G15A: the “exon inclusion enrichment index” value turned out to be 0.00652.

Consider G5A C6U U7A G8U C9A G46C, for which the “exon inclusion enrichment index” value is 0.0876.

As to C6A U7A C9A U10A U17G, the “exon inclusion enrichment index” value turned out to be 0.51.

For the variant G5A U7C G8A U10C G43C, the “exon inclusion enrichment index” value worked out at 2.52.

For the variant C6A U7C C9A U10C U32G G33A, the “exon inclusion enrichment index” value is 1.61.

For the variant C6A U7C C9A U10C A30U A31U, the “exon inclusion enrichment index” value turned out to be 2.77.

On to C6A U7A C9A U10A C18A, for which the “exon inclusion enrichment index” value is 0.411.

In the case of C6A U7A C9A U10A U27A G28C, the “exon inclusion enrichment index” value turned out to be 0.818.

Consider G5A C6U U7A G8U C9A G48U, for which the “exon inclusion enrichment index” value was determined as 0.114.

In the case of G5C C6U U10C, the “exon inclusion enrichment index” value was 1.82.

Take U7C G8C: the “exon inclusion enrichment index” value was 1.02.

As for G5A U7C G8A U10C C24G A25C, the “exon inclusion enrichment index” value is 3.54.

G5C C6G U7C U10C A31G U32A: the “exon inclusion enrichment index” value stood at 5.21.

In the case of U3A U4C G5A U7C G8A U10C, the “exon inclusion enrichment index” value turned out to be 2.99.

Take G5C C6A U7C G8A U10A A39G A40G: the “exon inclusion enrichment index” value is 0.0106.

G5A C6G U7G C9A: the “exon inclusion enrichment index” value is 0.00225.

As for C6A U7A C9A U10A C24U A25G, the “exon inclusion enrichment index” value is 1.3.

G5A C6G U7G C9A G11A: the “exon inclusion enrichment index” value worked out at 0.000945.

For the origin of these results see the RNAGym collection of RNA variant scans (doi:10.1101/gr.219683.116).
